In patent US20050014206A1, “Method of identifying compounds that specifically inhibit the anaphase promoting complex” (Boehringer Ingelhiem International GmbH, priority 2003, published 2005):
Entries after “also recorded” stand apart in the source; their conditions may differ.

B1: CDC20 C-terminal peptide CLRREREKASTSKSSLIHQGIR (peptide)
peptide: CLRREREKASTSKSSLIHQGIR
modifications: in the peptide binding assays immobilized via the N-terminal cysteine onto maleinimide-activated POROS matrix; free peptide in the competition assays
notes: Synthetic peptide; also called CDC20 C-terminus; CDC20 peptide
B2: CDH1 C-terminal peptide CFSKTRSTKESVSVLNLFTRIR (peptide)
peptide: CFSKTRSTKESVSVLNLFTRIR
modifications: in the peptide binding assays immobilized via the N-terminal cysteine onto maleinimide-activated POROS matrix; free peptide in the competition assays
notes: Synthetic peptide; also called CDH1 C-terminus; CDH1 peptide

How the values were obtained:
APC3 = target: T1, APC3 (Homo sapiens, UniProt P30260); assay: Peptide binding assay (matrix-coupled peptides), APC3
T1 construct: HisHA; made in house; host or cells: Sf9 or Hi5 insect cells (baculovirus), used as lysate
T1 sequence (P30260 whole entry): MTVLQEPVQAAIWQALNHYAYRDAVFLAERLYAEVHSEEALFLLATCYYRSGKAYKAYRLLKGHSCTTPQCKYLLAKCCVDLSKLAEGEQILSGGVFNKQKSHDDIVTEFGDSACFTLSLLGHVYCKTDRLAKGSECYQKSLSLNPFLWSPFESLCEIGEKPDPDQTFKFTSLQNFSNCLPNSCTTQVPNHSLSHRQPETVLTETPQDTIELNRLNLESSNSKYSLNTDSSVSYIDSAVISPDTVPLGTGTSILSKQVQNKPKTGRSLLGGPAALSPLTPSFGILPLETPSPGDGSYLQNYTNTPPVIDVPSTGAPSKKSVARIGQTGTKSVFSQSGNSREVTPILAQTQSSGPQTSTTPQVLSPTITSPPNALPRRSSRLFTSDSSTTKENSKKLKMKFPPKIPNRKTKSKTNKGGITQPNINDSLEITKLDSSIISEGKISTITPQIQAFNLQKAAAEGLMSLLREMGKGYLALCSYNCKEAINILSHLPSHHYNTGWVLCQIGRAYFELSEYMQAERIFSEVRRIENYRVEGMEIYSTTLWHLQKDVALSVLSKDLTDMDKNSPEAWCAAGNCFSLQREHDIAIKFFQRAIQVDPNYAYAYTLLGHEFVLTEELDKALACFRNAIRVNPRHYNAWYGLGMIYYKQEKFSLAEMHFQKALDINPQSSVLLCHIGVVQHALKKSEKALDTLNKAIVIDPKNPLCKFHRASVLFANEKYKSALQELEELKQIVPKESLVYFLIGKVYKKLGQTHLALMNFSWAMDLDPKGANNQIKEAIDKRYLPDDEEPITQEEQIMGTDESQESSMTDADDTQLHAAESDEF
Protocol: (§1) Synthetic peptides used in binding and inhibition assays were […] (CDC20 C-terminus; SEQ ID NO:2), […] (CDH1 C-terminus; SEQ ID NO:1), […] (CDC20 N-terminus; SEQ ID NO:10), and CAVWSLSSCKPGFGVD (control; SEQ ID NO:11).
(§2) Peptide interaction assays were carried out as described in Wendt, K. S., et al., Nat Struct Biol 8:784-8 (2001). Synthetic peptides (see above) were immobilized via N-terminal cysteine residues onto maleinimide-activated POROS matrix ([…]) in 0.1 M HEPES, pH 7.9 for 3 hours. After washing with slightly acidic buffers, 100 μg of the resulting matrix were incubated with insect cell lysates containing recombinant APC subunits, or with fractions from anion chromatography, in total volumes of […] of TBS/T pH 7.5. After stringent washing in TBS/T 0.5 M NaCl, samples were analyzed by SDS-PAGE and immunoblotted with 12CA5 anti-HA antibodies or antibodies against APC subunits.
(§3) To test if APC3 would also interact with the C-termini of CDH1 and its related activator CDC20, insect cell lysates containing recombinantly expressed APC3 were incubated with synthetic peptides coupled to a matrix through their N-terminus. After washing, peptide-bound material was analyzed by western blot. […] In budding yeast, which lacks APC7, they share Cdc27p as their closest homologue.
(§4) In order to exclude any non-specific effects caused by incorrect folding of recombinantly expressed proteins, an alternative source of APC subunits was used in the peptide binding assays. As described above, late-eluting fractions from the ReSource Q column contained considerable amounts of the TPR subunits APC3, APC6, and APC7, while other subunits were found in lower abundance (FIG. 10).

holo-APC = target: T2, holo-APC (Homo sapiens, UniProt P30260+Q9UJX3); assay: Peptide binding assay with holo-APC containing fractions; conditions: APC-containing anion exchange fractions
T2 construct: endogenous in cells; host or cells: HeLa cells, Source15Q fractions eluting around 450 mM KCl
Protocol: as §1
Pellets from 5×10^9 logarithmically grown HeLa cells (4C, Belgium) were lysed in 20 mM TrisCl pH7.7, 150 mM KCl, 0.5 mM DTT, 0.1% Tween-20, Protease Inhibitor mix (Sigma) using a french press and cleared by 100,000×g centrifugation for 1 h. After filtration through a 0.45 μm filter, extracts were loaded onto a 60 ml Source15Q anion exchange column (Amersham) at 4 ml/min. The column was washed with 20 mM Tris-Cl pH7.7, 150 mM KCl, 0.5 mM DTT until a drop in A280 indicated the end of the flowthrough. Elution was carried out with a gradient from 150 mM to 600 mM KCl. […]
Peptide interaction assays were carried out as described in Wendt, K. S., et al., Nat Struct Biol 8:784-8 (2001). […] After stringent washing in TBS/T 0.5 M NaCl, samples were analyzed by SDS-PAGE and immunoblotted with 12CA5 anti-HA antibodies or antibodies against APC subunits.
It was tested if CDH1's C-terminus would be sufficient to interact with holo-APC. For this, APC-containing fractions were incubated with the peptide matrix and analyzed for binding of APC by detection of all subunits. […]

APC6 = target: T3, APC6 (Homo sapiens, UniProt Q13042); assay: Peptide binding assay (matrix-coupled peptides), APC6; conditions: for binding of recombinant APC6 to matrix-coupled peptide: insect cell lysates, western blot
T3 construct: HisHA; made in house; host or cells: Sf9 or Hi5 insect cells (baculovirus), used as lysate
T3 sequence (Q13042 whole entry): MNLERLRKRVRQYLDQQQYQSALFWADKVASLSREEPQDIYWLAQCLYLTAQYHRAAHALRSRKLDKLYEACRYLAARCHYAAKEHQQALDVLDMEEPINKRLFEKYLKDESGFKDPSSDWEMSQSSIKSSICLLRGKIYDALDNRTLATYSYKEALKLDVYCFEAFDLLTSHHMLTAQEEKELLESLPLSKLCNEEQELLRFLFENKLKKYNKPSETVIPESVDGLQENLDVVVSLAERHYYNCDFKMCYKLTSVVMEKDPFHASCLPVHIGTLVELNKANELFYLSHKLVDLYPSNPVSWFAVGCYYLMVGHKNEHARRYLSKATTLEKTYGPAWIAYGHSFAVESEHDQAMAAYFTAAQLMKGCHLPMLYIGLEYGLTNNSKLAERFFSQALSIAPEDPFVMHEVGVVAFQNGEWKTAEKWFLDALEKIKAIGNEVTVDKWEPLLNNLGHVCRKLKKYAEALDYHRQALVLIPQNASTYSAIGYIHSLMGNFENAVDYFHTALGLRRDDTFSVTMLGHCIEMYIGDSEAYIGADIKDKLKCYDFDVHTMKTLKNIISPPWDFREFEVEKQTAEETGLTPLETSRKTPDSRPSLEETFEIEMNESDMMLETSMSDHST
Protocol: as §1, §2, §3, §4

APC activation by CDH1 = target: T4, APC activation by CDH1 (Homo sapiens, UniProt P30260+Q9UJX3); assay: In vitro ubiquitination assay with [125I]-labelled cyclin B as substrate; assay type: biochemical; conditions: APC loaded with recombinant CDH1 in presence of peptide at 1 mg/ml, cyclin B fragment substrate
T4 construct: endogenous in cells; host or cells: APC immunopurified from HeLa cell extracts; CDH1 and cyclin B fragment recombinant
Protocol: (§5) Immunopurified holo-APC or subcomplexes were washed and incubated with purified recombinant CDH1 (0.5-1.0 μg per 10 μl bead volume) in TBS/T, or with insect cell lysates in TBS/T containing recombinant CDH1 proteins as indicated. Peptides for competition were used at 1 mg/ml, with the addition of 0.5 mM DTT to the buffer. Subsequently, bead-bound complexes were washed 3× with TBS/T and immunoblotted for binding of CDH1 or used in ubiquitination assays. In vitro ubiquitination reactions were performed as described (Kramer, E. R., et al., Curr Biol 8:1207-10 (1998)). Securin-myc-his substrate was detected by immunoblotting with monoclonal anti-Myc 9E10 antibodies. Alternatively, an iodinated N-terminal recombinant fragment of sea urchin cyclin B (amino acids 13-110) was used and visualized by autoradiography (Gieffers, C., et al., Mol Cell 7:907-13 (2001)).
(§6) What are the mechanistic consequences of the observed interactions between IR tail peptides and APC subunits? To address this, it was tested if the peptides would influence APC activity in in vitro ubiquitination assays. Immunopurified APC was loaded with recombinant CDH1 in the presence or absence of IR-tail or control peptides, washed, and used to ubiquitinate a radioactively labeled fragment of cyclin B (FIG. 6B). […] In contrast, an N-terminal CDC20 peptide had no effect on APC activation.

[1] = target: T5, binding of recombinant CDH1 to APC (Homo sapiens, UniProt P30260+Q9UJX3); assay: CDH1 binding assay with competing peptides; conditions: peptides at 1 mg/ml; for effect of peptide on CDH1 binding to APC: quantitative immunoblotting with radiolabeled antibodies
T5 construct: endogenous in cells; host or cells: APC immunopurified from HeLa cell extracts; CDH1 recombinant, made in house
Protocol: as §5, §6

APC7 = target: T6, APC7 (Homo sapiens, UniProt Q9UJX3); assay: Peptide binding assay (matrix-coupled peptides), APC7 and APC7 fragments; conditions: for binding of recombinant APC7 to matrix-coupled peptide: recombinant APC7 in insect cell lysates, western blot
T6 construct: HisHA; made in house; host or cells: Sf9 or Hi5 insect cells (baculovirus), used as lysate
T6 sequence (Q9UJX3 whole entry, the tested form may be a part): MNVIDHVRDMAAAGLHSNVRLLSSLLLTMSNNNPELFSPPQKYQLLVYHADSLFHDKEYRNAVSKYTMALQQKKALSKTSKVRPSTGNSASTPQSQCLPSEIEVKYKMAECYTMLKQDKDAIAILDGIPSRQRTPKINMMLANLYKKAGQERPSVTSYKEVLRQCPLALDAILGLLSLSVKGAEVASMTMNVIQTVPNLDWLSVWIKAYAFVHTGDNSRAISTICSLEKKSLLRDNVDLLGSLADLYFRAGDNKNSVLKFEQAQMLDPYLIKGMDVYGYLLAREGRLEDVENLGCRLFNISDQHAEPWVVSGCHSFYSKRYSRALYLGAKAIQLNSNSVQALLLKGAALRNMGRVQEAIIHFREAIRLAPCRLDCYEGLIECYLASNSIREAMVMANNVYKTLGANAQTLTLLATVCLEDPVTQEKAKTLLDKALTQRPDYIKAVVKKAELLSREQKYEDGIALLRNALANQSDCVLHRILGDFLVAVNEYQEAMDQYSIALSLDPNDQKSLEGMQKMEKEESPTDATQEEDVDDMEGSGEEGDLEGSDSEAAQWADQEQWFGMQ
Protocol: as §1, §2, §3, §4
Lastly, the region in APC7 responsible for binding to IR peptides was mapped.

APC5 = target: T7, APC5 (Homo sapiens, UniProt Q9UJX4); assay: Peptide binding assay (matrix-coupled peptides), APC5; conditions: insect cell lysates; western blot
T7 construct: HisHA; made in house; host or cells: Sf9 or Hi5 insect cells (baculovirus), used as lysate
T7 sequence (Q9UJX4 whole entry): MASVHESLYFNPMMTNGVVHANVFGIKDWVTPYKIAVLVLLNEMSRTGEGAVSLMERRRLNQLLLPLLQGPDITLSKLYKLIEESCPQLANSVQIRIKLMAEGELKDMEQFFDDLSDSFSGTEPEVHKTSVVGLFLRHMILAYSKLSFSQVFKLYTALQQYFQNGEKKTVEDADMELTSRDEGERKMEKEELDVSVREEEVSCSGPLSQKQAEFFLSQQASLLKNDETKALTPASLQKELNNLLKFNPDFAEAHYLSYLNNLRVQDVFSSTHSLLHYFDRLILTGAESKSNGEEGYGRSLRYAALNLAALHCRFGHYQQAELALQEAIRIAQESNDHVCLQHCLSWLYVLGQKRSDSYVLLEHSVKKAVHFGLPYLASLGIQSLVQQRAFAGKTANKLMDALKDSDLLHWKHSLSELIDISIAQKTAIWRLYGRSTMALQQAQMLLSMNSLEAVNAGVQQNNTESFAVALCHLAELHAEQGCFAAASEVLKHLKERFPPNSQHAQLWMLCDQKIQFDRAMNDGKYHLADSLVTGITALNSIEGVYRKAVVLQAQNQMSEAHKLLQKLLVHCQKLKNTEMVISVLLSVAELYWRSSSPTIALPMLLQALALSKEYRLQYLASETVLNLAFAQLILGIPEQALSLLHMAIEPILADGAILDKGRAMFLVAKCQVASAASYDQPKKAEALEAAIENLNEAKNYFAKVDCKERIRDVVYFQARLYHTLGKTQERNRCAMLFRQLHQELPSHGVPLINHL
Protocol: as §1, §2, §3

APC8 = target: T8, APC8 (Homo sapiens, UniProt Q9UJX2); assay: Peptide binding assay (matrix-coupled peptides), APC8; conditions: insect cell lysates; western blot
T8 construct: HisHA; made in house; host or cells: Sf9 or Hi5 insect cells (baculovirus), used as lysate
T8 sequence (Q9UJX2 whole entry): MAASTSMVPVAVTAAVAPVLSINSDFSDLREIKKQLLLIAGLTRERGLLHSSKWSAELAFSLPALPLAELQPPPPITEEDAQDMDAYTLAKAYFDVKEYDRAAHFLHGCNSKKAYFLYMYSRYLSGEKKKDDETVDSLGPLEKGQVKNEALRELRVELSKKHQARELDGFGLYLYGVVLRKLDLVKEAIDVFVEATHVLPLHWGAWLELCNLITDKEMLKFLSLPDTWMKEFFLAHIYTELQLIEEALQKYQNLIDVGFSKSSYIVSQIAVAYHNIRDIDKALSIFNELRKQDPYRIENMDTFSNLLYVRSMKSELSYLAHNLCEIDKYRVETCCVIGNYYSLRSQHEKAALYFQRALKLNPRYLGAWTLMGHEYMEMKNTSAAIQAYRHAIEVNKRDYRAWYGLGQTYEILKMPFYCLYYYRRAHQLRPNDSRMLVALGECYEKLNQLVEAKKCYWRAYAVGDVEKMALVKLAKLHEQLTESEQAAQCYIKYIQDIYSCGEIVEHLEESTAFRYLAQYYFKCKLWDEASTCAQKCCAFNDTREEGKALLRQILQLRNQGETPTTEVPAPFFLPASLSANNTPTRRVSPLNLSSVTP
Protocol: as §1, §2, §3

CDC26 = target: T9, CDC26 (Homo sapiens, UniProt Q8NHZ8); assay: Peptide binding assay (matrix-coupled peptides), CDC26; conditions: late-eluting Q column fractions from HeLa extracts; listed as CDH1 peptide
T9 construct: endogenous in cells; host or cells: HeLa cells, late-eluting Source15Q fractions
T9 sequence (Q8NHZ8 whole entry): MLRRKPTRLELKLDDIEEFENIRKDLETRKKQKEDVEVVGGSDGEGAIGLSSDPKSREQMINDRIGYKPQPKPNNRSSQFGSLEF
Protocol: as §1, §2, §4

[2] = target: T10, recombinant HisHA-tagged APC5 (UniProt Q9UJX4 1-755); assay: matrix-coupled peptide pull-down from insect cell lysate, western blot
T10 construct: Expressed with baculovirus in insect cells; used as lysate; not shown: HisHA tag
T10 sequence (Q9UJX4 whole entry): as the sequence (Q9UJX4 whole entry) above
Protocol: as §2
(§7) To test if APC3 would also interact with the C-termini of CDH1 and its related activator CDC20, insect cell lysates containing recombinantly expressed APC3 were incubated with synthetic peptides coupled to a matrix through their N-terminus. After washing, peptide-bound material was analyzed by western blot. […] APC7, on the other hand, interacted strongly with the CDH1 C-terminus and moderately with CDC20's C-terminus (FIG. 5A), in a manner very similar to APC3. […] In budding yeast, which lacks APC7, they share Cdc27p as their closest homologue.

[3] = target: T11, recombinant HisHA-tagged APC8 (UniProt Q9UJX2 1-597); assay: as above
T11 construct: Expressed with baculovirus in insect cells; used as lysate; also called APC8/CDC23; not shown: HisHA tag
T11 sequence (Q9UJX2 whole entry): as the sequence (Q9UJX2 whole entry) above
Protocol: as §2, §7

[4] = target: native CDC26 from late-eluting anion exchange fractions of HeLa extract (human, UniProt Q8NHZ8 1-85); assay: matrix-coupled peptide pull-down from late-eluting Q column fractions, western blot
Sequence of native CDC26 from late-eluting anion exchange fractions of HeLa extract (Q8NHZ8 whole entry): as the sequence (Q8NHZ8 whole entry) above
Protocol: as §2, §4

[5] = recombinant APC3 in insect cell lysates, western blot
[6] = listed as C-terminal CDH1 peptide
[7] = listed as C-terminal peptide of CDH1
[8] = late-eluting Q column fractions from HeLa extracts
[9] = listed as C-terminal CDC20 peptide

Row | Molecule | binding of recombinant APC3 to matrix-coupled peptide (APC3; [5]) | binding of holo-APC (all known subunits) to peptide matrix (holo-APC) | binding of recombinant APC6 to matrix-coupled peptide (APC6) | effect of peptide on APC activation (ubiquitination activity) (APC activation by CDH1) | binding of recombinant APC7 to matrix-coupled peptide (APC7) | binding of recombinant APC5 to matrix-coupled peptide (APC5) | binding of recombinant APC8 to matrix-coupled peptide (APC8) | binding result [2] | binding result [3] | other results
1 | CAVWSLSSCKPGFGVD (Control peptide) [reference compound] | did not bind | not | low amounts |  |  |  |  |  |  | 
2 | CESDLHSLLQLDAPIPNAPPARW (listed as Homo sapiens) [N-terminal CDC20 peptide, synthetic peptide of the CDC20 N-terminus used as control, reference compound] |  |  |  | no effect |  |  |  |  |  | 
3 | CFSKTRSTKESVSVLNLFTRIR (listed as Homo sapiens) [CDH1 C-terminal peptide, IR peptide; authentic human CDH1 C-terminus] | even stronger binding | strongly enriched | bound only in low amounts |  | interacted strongly | interacted with neither | did not bind |  |  | inhibitory effect compared with the CDC20 C-terminal peptide ([1]; comparison of the two C-terminal peptides): stronger effect; effect of peptide on CDH1 binding to APC [1, 6]: inhibit; effect of peptide on CDH1 binding to APC [1, 7]: diminished binding of CDH1; binding of native APC3 to peptide matrix (APC3; [8]): significantly retained; effect of peptide on APC activation (ubiquitination activity) (APC activation by CDH1; [6]): inhibit; effect of peptide on APC activation (ubiquitination activity) (APC activation by CDH1; [7]): blocked APC activation efficiently; binding of native APC7 to peptide matrix (APC7; [8]): significantly retained; binding of CDC26 to peptide matrix (CDC26): no binding at all; also recorded: did not bind; binding of native APC6 to peptide matrix (APC6; late-eluting Q column fractions from HeLa extracts, listed as CDH1 peptide): did not bind
4 | CLRREREKASTSKSSLIHQGIR (listed as Homo sapiens) [C-terminal peptide of CDC20, IR peptide; authentic human CDC20 C-terminus] |  |  | bound only in low amounts | blocked APC activation efficiently | moderately | interacted with neither | did not bind |  |  | effect of peptide on CDH1 binding to APC [1]: diminished binding of CDH1; effect of peptide on CDH1 binding to APC [1, 9]: inhibit; input APC3 bound to matrix-coupled peptide (APC3; recombinant APC3 in insect cell lysates, western blot, % of input): about 10%; effect of peptide on APC activation (ubiquitination activity) (APC activation by CDH1; [9]): inhibit
5 | B1 |  |  |  |  |  |  |  | no binding | no binding | 
6 | B2 |  |  |  |  |  |  |  | no binding | no binding | binding result [4]: no binding
